Measured values published in US20130336973A1.
Several values for one entry are separate records, joined by “and”; a condition that tells them apart may be missing. Identical values can stand only once.

Key:
[1] = molecular target: FcγRIIB (CD32b), Y163 allotype (UniProt P31994); assay: SPR
[2] = molecular target: neonatal Fc receptor (FcRn) (UniProt P55899); assay: SPR, Ab captured on goat anti-human IgG, FcRn flowed, pH 6.0
[3] = molecular target: FcγRIIIA (CD16a), F158 allotype (UniProt P08637); assay: SPR
FcγRIIIA (CD16a), F158 allotype, sequence (P08637 17-208 limits assumed): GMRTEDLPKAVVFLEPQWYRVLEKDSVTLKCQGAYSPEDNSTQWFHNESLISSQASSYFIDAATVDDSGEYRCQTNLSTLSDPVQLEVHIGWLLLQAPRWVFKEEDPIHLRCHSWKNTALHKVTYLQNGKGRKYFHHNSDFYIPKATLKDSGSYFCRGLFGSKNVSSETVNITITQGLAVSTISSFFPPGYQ

FcγRIIB (CD32b), Y163 allotype, sequence (P31994 43-217 limits assumed): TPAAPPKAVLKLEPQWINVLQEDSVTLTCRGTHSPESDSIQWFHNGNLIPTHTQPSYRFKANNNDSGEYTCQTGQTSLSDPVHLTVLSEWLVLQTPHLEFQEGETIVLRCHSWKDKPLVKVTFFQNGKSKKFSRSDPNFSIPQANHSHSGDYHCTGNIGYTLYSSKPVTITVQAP

Kd [1]	Kd [2]	Kd [3]	Substance
990 nM	3.9 µM		T350V_L351Y_F405A_Y407V / T350V_T366L_K392L_T394W (antibody)
		630 nM	Y349C_D399C_F405A_Y407V / S354C_T366L_K392C_T394W (antibody)
1200 nM		580 nM	Y349C_F405A_Y407V / S354C_T366L_T394W (antibody)
910 nM			T350V_L351Y_S400E_F405A_Y407V / T350V_T366L_N390R_K392L_T394W (antibody)
1200 nM		510 nM	D399C_F405A_Y407V / T366L_K392C_T394W (antibody)
1000 nM		450 nM	T350V_S400E_F405A_Y407V / T350V_T366L_N390R_K392M_T394W (antibody)
710 nM			T350V_L351Y_S400E_F405A_Y407V / T350V_T366L_N390R_K392F_T394W (antibody)
	4.1 µM	460 nM	Y349C_T350V_F405A_Y407V / T350V_S354C_T366L_K392M_T394W (antibody)
830 nM		420 nM	T350V_L351Y_S400E_F405S_Y407V / T350V_T366L_N390R_K392M_T394W (antibody)
1700 nM	3.7 µM		Herceptin WT (antibody)

The next lines start with the substance.

Substance	Kd [1]	Kd [2]	Kd [3]
F405A_Y407V / T366L_T394W (antibody)			480 nM
T350V_F405A_Y407V / T350V_T366L_K392M_T394W (antibody)	1000 nM		
T350V_L351Y_F405A_Y407V / T350V_T366L_K392M_T394W (antibody)	1200 nM	4.3 µM	460 nM
T350V_L351Y_S400E_F405A_Y407V / T350V_L351Y_T366L_N390R_K392M_T394W (antibody)	710 nM		
Q347R_T350V_L351Y_S400E_F405A_Y407V / T350V_K360E_T366L_N390R_K392M_T394W (antibody)	920 nM		420 nM
T350V_L351Y_S400R_F405A_Y407V / T350V_T366L_N390D_K392M_T394W (antibody)	940 nM		
Y349C_T350V_L351Y_S400E_F405A_Y407V / T350V_S354C_T366L_N390R_K392M_T394W (antibody)	950 nM		420 nM
T350V_L351Y_S400R_F405A_Y407V / T350V_T366L_K392M_T394W (antibody)	890 nM		
T350V_L351Y_S400E_F405A_Y407V / T350V_T366L_N390R_K392M_T394W (antibody)	900 nM	5 µM	450 nM and 420 nM
T350V_L351Y_S400E_F405T_Y407V / T350V_T366L_N390R_K392M_T394W (antibody)	670 nM		
T350V_L351Y_S400R_F405A_Y407V / T350V_T366L_N390E_K392M_T394W (antibody)	890 nM		420 nM
L351Y_F405A_Y407V / T366L_K392M_T394W (antibody)		5 µM	420 nM
F405A_Y407V / T366L_K392M_T394W (antibody)			460 nM
